Test results as given in the nanobody polyreactivity screen of Harvey et al. (2022).

Test: yeast display, Sf9 membrane polyspecificity reagent, FACS + sequencing; frameworks hold sequencing errors
Procedure, shortened: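 After 36–48 hours of galactose induction, yeast (Saccharomyces cerevisiae BJ5465) displaying a synthetic nanobody library were stained at 4 °C for 1 hour with 10% biotinylated, detergent-solubilized Sf9 membrane reagent. Streptavidin microbeads enriched the stained cells before FACS sorting into low and high (top ~1%) gates on anti-HA and streptavidin fluorescence. Each clone's polyreactivity label reflects its gate of origin.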

Row | Sequence | polyreactivity (PSR sort gate)
1 | QVQLVESGGGLVQAGGSLRLSCAASGFIFVGNAMGWYRQAPGKERELVAAISRRGSRTFYADSVKGRFTISRDNAKNTVYLQMNSLKPEDTAVYYCATDKWYGYYYWGQGTQVTVSS | low polyreactivity
2 | QGQLVESGGGLVQAGGSLRLSCAASGNTFGKNAMGWYRQAPGKERELVAAIRSSGGSTYYADSVKGRFTISRDNAKNTVYLQMNSLKPEDSAVYYCNADVIRQTDGYDYWGQGTLVTVSS | high polyreactivity
3 | QVQLVESGGALVQAGGSLRLSCAASGITFKPYGMGRYRQAPGKETELVADITSGGITYYADSVKGRFTISRDNAKNTVYLQMNSLKPEDTDVYYCAAVGGRSSYRLDYWGQGTQVTVSS | low polyreactivity
4 | QVQLVESGGGLVQAGGSLRLSCAASGSTLYAYAMGWYRQAPGKERELVASIPAGGITHYADSVKGRVTISRDNANNTVYLHMISLKPEDTAVDYCNTVAYLRRFDKWGMNYWGQGTQVTVSS | low polyreactivity
5 | QVQLVESGGGLVQAGGSLRLSCAASGSTSVVNAMGWYRQAPGKERELVAAISTGGASTYYADSVKGRFTISRDNAKNTVYLQMNSLNPEDTAVYYCAADLGYEYDYWGQGTQVTVSS | high polyreactivity
6 | QVQHVESGGGLVQAGGSLRLSCAASGSIFRYYVMGWYSQAPGKERELGAAISSGGRTYYADSVKGRFTISRDNAKNTVYLQMNSLKPEDTAVYYCNAQGLFYWEMDYWGQGTQVTVSS | high polyreactivity
7 | QVQLVESGGGLVQAGGSLRLSCAASGSTFVVYAMGWSRQAPGKERELVAAISTSDTSTYYADSVKGRFTISRDNAKNTVYLQMNSLKPEDTAVYYCAADGTYVYINEYEYWGQGTQVTVSS | low polyreactivity
8 | QVQLVESGGGLVQAGGSLRLICAASGSTLAYNAMGWYRQAPGKERELVAGIRGSGGSTYYADSVKGRFTISRDNAKNTVYLQMNSLKPEDTAVYDCAADGLSNVRQMDYWGQGTQVTVSS | low polyreactivity
9 | QVQLVESGGGLVQAGGSLRLSCAASGRTFVTNAMGWYRQAPGKERELVAAITQRGGRTYYADSVKGRFTISRDNAKNTVYLQMNSLKPEDTAVYYCAASYYGWSARYDTLGIYEYWGQGTQVTVSS | high polyreactivity
10 | QVQLVESVGGLVQAGGSLRLSCAASGRIFLWYAMGWYRQAPGKERELVAAISGSGGSTSYADSVKGRITISRDNAKNTVYLQMNSLKPEDTAVYYCAALYRTWARYKVYYWGQGTQVTVSS | high polyreactivity
11 | QVQLVESGGGLVQAGGSLRLSCAASGLTFGNYSKGWYRQAPGKERELVAAISKRGGTTYYADSVKGRFTISRDNAKNTVYLQMNSLKPEDTAVYYCAAQVGRGYEVYPVYKYGYWGQGTQVTVSS | high polyreactivity
12 | QVQLVESGGGLVQAGGSLRLSCAASGRISVFNAMGWYRQAPGKERELVATITDGGSTYYADSVKGRFTISRDNAKNTVYLQMNSLKPEDTAVYYCAKKQVTTDVSSETFVLEMDYWGQGTQVTVSS | low polyreactivity
13 | QVQLVESGGGLVQAGCSLRLSCAASGSTFPYNTMGWYRQAPGKERELVAAITSSAGSTYYADSVKGRFTISRDNAKNTVYLQMNSLKPDDTAVYYCAADYIVWKGSNSYYYAGYYYWGQGTQVTVSS | low polyreactivity
14 | QVQLVESGGRLVQAGGSLRLSCAASGYNFSKYAMGWYRQAPGKERELVAAISGSGGSTSYADSVKGRFTISRDNAKNTVYLHMNSLKPEDTAVYYCNARSRLQRGRMDYWGQGTQVTVSS | high polyreactivity
15 | QVQLVESGGGLVQAGGSLRLSCAASGRIFYYNTMGWYRQAPGKERELVAAITTNGGSTYYADSVKGRFTISRDNAKNTVYLQMNSPKPEDTAVYYCNRDRYPYYYAYNYWGQGTQVTVSS | low polyreactivity
16 | QVQLVESGGGLVQAGGSLRLSCAASGFIFYRYAMGWYRQAPGKEREFVAVISRSGDRTNYADSVKGRFTISRDNAKNTVYLQMNSLKPEDTAVYYCNTDSRSAHGYWGQGTQVTVSS | high polyreactivity
17 | QVQLVESGGGLVQAGGSLRLSCAASGRIFERNAMGGDRQAPGKEREFVAASSWSGGSTHYADSVKGRFTSSRDNAKNTVYVQMNSLKPEDTAVYFCAARRRKAGRPSDRYYYWGQGTQVTVSS | high polyreactivity
18 | QVQLVESGGGLVQAAGSLRLSCAASGSIFSANSMGWYRQAPGKERELVAAISGRGTRTYYADSVKGRFTISRDNAKYTVYLQMNSLKPEDTAVYYCNAARDRTSPEYDYWGQGTQVTVSS | high polyreactivity
19 | QVQLVESGGGLVQAGGSLRLSCADSGFIFSHNVMGWYRQAPGKERELVAAISASGGSTYYADSVKGRFTISRDNAKNTVYLQMNSLKPEDTAVYYCAKVTWGTVWYRSPSEYDYWGQGTQVTVSS | low polyreactivity
20 | QVQLVESGGGLVQAGGSLRLSCAASGRIFERYAMGWYRQAPGKERELVAGISISGGGTYYADSVKGRFTISRDNAKNTVYLQMNSLKPEDTAVYYCAATFPREEYGYWGQGTQVTVSS | low polyreactivity
21 | QVQLVESGGGLVQAGGSLRLSCAASGRIFARNAMGWYRQAPGKEREFVAAITHSGGNTYYADSVKGRFTISRDNAKNTVYLQMNSLKPEATAVYYCAKDYRSTKYDYWGQGTQVTVSS | low polyreactivity
22 | QVQLVESGGGLVQAGGSLRLSCAASGSTYTRYAMGLYRQAPGKEMELVATINVSGDRTYYADSVKGRFTISRDNAKNTVYLQMNSLKPEDTAVYYCNKYRYQWPYRRFDYWGQGTQVTVSS | high polyreactivity

Row | Sequence | polyreactivity (PSR sort gate)
23 | QVQLVESGGGLVQAGGSLRLSCAASGSTLYAYAMGWYRQAPGKERELVAGISSSGARTYYADSVKGRFTISRDNAKITVYLQMNSLKPEDTAVYYCAALAPVGTSKSYGYWGQGTQVTVSS | high polyreactivity
24 | QVLLQESGGGLVQAGGSLRLSCAASGNIFSAGGMGWYRQAPVNERELVAGIGTGTSTNYADSVKGRFTISRDNAKNTVYLQMNILKPEDTAVYYCAAAYYSGLSHWYWGQGTQVTVSS | low polyreactivity
25 | QVQLVESGGGLVQAGGSLRLSCAASGNTFTTYAMGWYRQAPGKERELVAVISRSGGRTYYADSVKGRFTISRDNAKNTVYLQMNSLKPEDTAVYYCATRTYATSEYGYWGQGTQVTVSS | high polyreactivity
26 | QVQLVESGGGLVQAGGSLRLSCAASGSIFGYYVMGWYRPAPGKERELVAAITRSGSTYYADSVKGRFTISRDNAKNTVYLQMNSLKPEDTAGYYCAADGSYYWYPHTTYDYWGQGTQVTVSS | low polyreactivity
27 | QVQLVETAGGLVQAGGSLRLSSAASGRIFPFNTMGWSRQAPGKERELVATITYRGDRTYYADSVKGRFTISRDNAKNTVYLQMNSLKPEDTGVYYCNARGTYYLGRYYWGQGTQETVSS | high polyreactivity
28 | QVQRVESGGGLVQAGGSLRLRCAASGRIFQGNAMGWYRQAPGKERELVAAITWRGGTTYYADSVKGRFTISRDNAKNTVYLQMNSLKPEDTAVYYCNADWWRTLESDYWGQGTQVTVSS | low polyreactivity
29 | QVQLEESGGGLVQAGGSLRLSCAASGRTLGGYAMGWYRQAPGKERELVASITARGGSTYYADSVKGRFTISRDNAKNTVYLQMNSLKPEDTAVYYCAARSGYYRGGFYYWGQGTQVTVSS | high polyreactivity
30 | QVQLVESCGGLVQAGGSLRLSCAASGSTFRTYAMGWYRQAPGKERELVASIDSTGSTNYADSVKGRFTISSDNAKNSVYLQMNSLKPEDTAVYDCAAETYSYPPFYAYDYWGQGTQVTVSS | low polyreactivity
31 | QVQLVESGGGLVQAGGSLRLSCASSGFIFYYNAMGWYRQAPVKERELVAAISYGGGSTYYADSVKGRFTISRDNAKNTVYLQMNSLKPEDTAVYYCSARVYWWNASLAGNYWGQGTQVTVSW | low polyreactivity
32 | QVQLVESGGGLVQAGGSLRLSCAASGSIFSGYVMGWYRQAPGKERELVAAISSGGSTYYADSVKGRFTISRDNAKNTVYLQMNSLKPEDTAVYYCAARSRKYGLLFYYWGQGTQVTVSS | high polyreactivity
33 | QVQLVESGGGLVQAGGSLRLSCAASGSTFGRNTMGWYRQAPGKERELVAAITSGDTTTYADSVKGRFTISRDNAKNTVYLQMNSLKPEDTAVYYCAVDPVRGRDYSWMDYWGQGTQVTVSS | low polyreactivity
34 | QVKLVESGGGLVQAGRSLRLSFAASGSTFLYYGMGWYRQAPGKERELVATITWRGGRTYYADSVKGRFTISRDNAKNTVYLQMNSLKPEDTAVYYCAARVVGSYRKPYPYGLYYWGQGTQVTVSS | high polyreactivity
35 | QVQLVESGGGLVQAGGSLRLSCAASGSIFDYYAMGWYRQAPGKERELVSTYYADSVKGRFTISRDNAKNTVYLQMNSLKPEDTAVYYCAKDRGTTGIRDGPAASLYGYEYWGQGTQVTVSS | low polyreactivity
36 | QVQLVESGGGLVQAGGRLRLSCAASGRIFSTYAMGWYRQAPGKQRQLVAAINKSGGSTYYADSVKGRFTISRDTAKNTVYLQMNSLKPEDTAVYYCAADQSYPKRLPSFEYWGQGTQVTVSS | low polyreactivity
37 | QVQLVESGGGLVQAGGSLRLSCAASGFTFPSYTMGWYRQAPGKERELVAAISWSGGRTYYADSVKGRFTISRDNAKITVYLQKNSLKPEETAVYYCAAGYRTGGDSGDYWGQGTQVTVSS | high polyreactivity
38 | QVPLVESVGGLVQAGGSLRISCAASGGIFRYYAMGRYRQAPGNERELVAAITSSGTSTYYADSVKGRFTISRDNAKNTVYLQMNSLKPEDTAVYYCAAETYYSIYDYWGQGTQVTVSS | high polyreactivity
39 | QVQLGESGGGLVQAGGSLRLSCAASGRIFPVNAMGWYRQAPGKERELVATITSYSSTYADSVKGRFTISRDNAMNTVVLQMNCLKPEDTAVYYCNADQGYFGYDYWGQGTQVTVSS | low polyreactivity
40 | QVQLVESGGGLVQAGGSLRLSCAASGIIFSFYTMGWYRQAPGKERELGAAITWSGGSTYYADSVKGRFTISRDNAKNTVYLQMNSLKPEDTAVYYCARSQAVYDGWFAKFGYWGQGTQVTVSS | low polyreactivity
41 | QVQLVESGGGLVQAGGSLRLSCAASGRTFQQNAMGWYRQAPGKERELVATIRNGGNTNYADSVKGRFTISRDNAKNTVYLQLNSLKPEDTAVYYSAARVYTHGLWGYNYWGQGTQVTVSS | high polyreactivity
42 | QVQLVESGGGLVQAGGSLRLSCAASGRIFSYYAMGWYRQAPGKERELVATISGSGGSTYYADSVKGRFTISRDNAKNTVFLQMNSLKPEDTAVYYCAATGFIFRGRVRAIPRRYNYWGQGTQVTVSS | high polyreactivity
43 | QVQLVESGGGLVQAGGSLRLSCAASGRIFSYNAMGWYRQAPGKERELVAAISYRGGSTYYADSVKGRFTISRDNAKNTVYLQMNSLKPEDTAVYYCNAEAYYPYGYDYWGQGTQVSVSS | low polyreactivity
